Assay results as given in PMC10221750.

Key:
[1] = target: BG505 SOSIP.664 trimer (HIV-1 isolate BG505 (Clade A))
[2] = target: BG505 SOSIP.664 trimer (HIV-1 isolate BG505 (Clade A)); assay: SPR

PGT151 IgG (antibody)
neutralization of BG505 pseudovirus in a TZM-bl assay, IC50 [1]: 0.043 µg/mL

PGT151 Fab
KD1 (site 1, heterogeneous-ligand model) [2]: < 0.1 nM | KD2 (site 2, heterogeneous-ligand model) [2]: 27 nM | Kd [2]: 2 nM | Sm1 (stoichiometry of site 1, heterogeneous-ligand model) (Fab molecules per trimer) [2]: 1.2 | Sm1 + Sm2 (cumulative stoichiometry, heterogeneous-ligand model) (Fab molecules per trimer) [2]: 1.9 | Sm2 (stoichiometry of site 2, heterogeneous-ligand model) (Fab molecules per trimer) [2]: 0.7 | koff [2]: 0.00018 s⁻¹ | koff1 (site 1, heterogeneous-ligand model) [2]: < 1e-05 s⁻¹ | koff2 (site 2, heterogeneous-ligand model) [2]: 0.00076 s⁻¹ | kon [2]: 87000 M⁻¹ s⁻¹ | kon1 (site 1, heterogeneous-ligand model) [2]: 140000 M⁻¹ s⁻¹ | kon2 (site 2, heterogeneous-ligand model) [2]: 28000 M⁻¹ s⁻¹ | stoichiometry N (Fab molecules per trimer) [2]: 1.9
